The text below walks through data of publication PMC8259991, “Transgenerational inheritance of centromere identity requires the CENP-A N-terminal tail in the C. elegans maternal germ line” (PLoS Biology, 2021).

In the test the target is T1, KNL-2 central region (aa 269-470), recombinant (C. elegans, UniProt O44548 269-470).
T1 construct: The His9-MBP tag was cut off with TEV protease after mixing and before the pull-down; also called KNL-2 central fragment; source: E. coli BL21-Star, purified (MBP FF crude column, desalting); not shown: His9-MBP, N-terminal, cleaved
T1 sequence (looked up): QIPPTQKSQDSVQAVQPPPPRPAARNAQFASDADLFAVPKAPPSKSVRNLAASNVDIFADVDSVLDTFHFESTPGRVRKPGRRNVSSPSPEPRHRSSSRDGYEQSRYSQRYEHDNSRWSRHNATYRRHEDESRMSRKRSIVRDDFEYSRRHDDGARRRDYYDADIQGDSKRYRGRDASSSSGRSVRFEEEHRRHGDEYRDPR
Briefly: pull-down; recombinant proteins mixed in equimolar amounts, 1 h at RT, TEV digestion 30 min at RT, glutathione magnetic agarose beads 1 h at RT; SDS-PAGE with Coomassie stain. The settings on record: both partners purified.

B1: CENP-A N-terminal tail (aa 1-179) fused to GST (domain or fragment, C. elegans, UniProt P34470 1-179, looked up)
chain: MADDTPIIEEIAEQNESVTRIMQRLKHDMQRVTSVPGFNTSAAGVNDLIDILNQYKKELEDDAANDYTEAHIHKIRLVTGKRNQYVLKLKQAEDEYHARKEQARRRASSMDFTVGRNSTNLVDYSHGRHHMPSYRRHDSSDEENYSMDGTNGDGNRAGPSNPDRGNRTGPSSSDRVRMR
notes: CENP-A homolog HCP-3, C. elegans, residues 1-179 (N-terminal tail); The His9-MBP tag was cut off with TEV protease after the two proteins had been mixed and before the pull-down on glutathione beads; also called His9-MBP-TEV-CENP-A^1-179-GST; GST::CENP-A N-terminal tail; source: E. coli BL21-Star, purified (Ni-charged chelating HiTrap column, desalting); not shown: His9-MBP, N-terminal, cleaved; …
With B1, the binding result is on record as “binds”.
